According to PMC12610401, “The miR395b–ABI5 module regulates amylopectin branching and biosynthesis and affects lotus root quality”:

What was measured:
[1] = molecular target: T1, NnABI5 (ABA Insensitive 5) (Nelumbo nucifera, UniProt A0A1U8B646 1-478); assay: EMSA; unlabelled probe weakens the shift in a dose-dependent way; Not stated; EMSA with Beyotime chemiluminescent nucleic acid detection kit; details: protein: recombinant; tags: His (pCold TF vector); chain copies: 2; blunt
T1 sequence: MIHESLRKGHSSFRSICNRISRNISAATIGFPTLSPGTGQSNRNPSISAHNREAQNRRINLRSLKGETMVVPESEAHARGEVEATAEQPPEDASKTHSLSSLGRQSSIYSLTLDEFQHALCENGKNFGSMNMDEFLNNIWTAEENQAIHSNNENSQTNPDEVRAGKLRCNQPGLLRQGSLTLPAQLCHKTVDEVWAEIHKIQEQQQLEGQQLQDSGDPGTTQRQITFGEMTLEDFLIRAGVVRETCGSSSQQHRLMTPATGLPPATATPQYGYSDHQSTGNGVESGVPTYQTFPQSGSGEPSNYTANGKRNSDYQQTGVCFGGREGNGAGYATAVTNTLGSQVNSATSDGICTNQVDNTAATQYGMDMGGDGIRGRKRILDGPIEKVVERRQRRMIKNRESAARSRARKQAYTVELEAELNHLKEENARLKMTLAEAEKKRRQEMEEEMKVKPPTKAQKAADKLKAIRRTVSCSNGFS

[2] = molecular target: T1, NnABI5 (ABA Insensitive 5); assay: EMSA; Not stated; EMSA with Beyotime chemiluminescent nucleic acid detection kit; details: protein: recombinant; tags: His (pCold TF vector); chain copies: 2; blunt

B1: NnSBEII promoter probe (WT) (dsDNA)
DNA 1: GTGGCAACGACTGGTCACGTGACTTACGTCACCCAT
DNA 2: ATGGGTGACGTAAGTCACGTGACCAGTCGTTGCCAC
- binding result [1]: binds

B2: NnSS2 promoter mutant probe (dsDNA)
DNA 1: CTTCCTCGGTTTTTCAAAAAATTTCTTCTGGAGTAT
DNA 2: ATACTCCAGAAGAAATTTTTTGAAAAACCGAGGAAG
- binding result [2]: no binding

B3: NnSBEII promoter mutant probe (dsDNA)
DNA 1: GTGGCAACGACTGGTAAAAAAACTTACGTCACCCAT
DNA 2: ATGGGTGACGTAAGTTTTTTTACCAGTCGTTGCCAC
- binding result [2]: no binding

B4: NnSS2 promoter probe (WT) (dsDNA)
DNA 1: CTTCCTCGGTTTTTCCACGTGTTTCTTCTGGAGTAT
DNA 2: ATACTCCAGAAGAAACACGTGGAAAAACCGAGGAAG
- binding result [1]: binds
